Publication PMC8967028

Molecular target: SARS-CoV-2 Wuhan spike (S) receptor binding domain (SARS-CoV-2)
Assay: SPR; Biacore T200; […], single cycle kinetics, […]; 25°C; PBS, 0.05% Tween 20, 3.4 mM EDTA; 1:1 binding model; triplicate; […]

| Substance | koff |
| --- | --- |
| VHH-72-Fc L97W (Fc fusion) | 0.0018 s⁻¹ |
| VHH-72-Fc L97W,T99V (Fc fusion) | 0.00035 s⁻¹ |
| VHH-72-Fc S56M (Fc fusion) | 0.0031 s⁻¹ |
| VHH-72-Fc S56M,L97W (Fc fusion) | 0.00044 s⁻¹ |
| VHH-72-Fc S56M,L97W,T99V (Fc fusion) | 0.00028 s⁻¹ |
| VHH-72-Fc S56M,T99V (Fc fusion) | 0.00041 s⁻¹ |
| VHH-72-Fc T99V (Fc fusion) | 0.00072 s⁻¹ |
| parental VHH-72-Fc (Fc fusion) | 0.0091 s⁻¹ |
